Laboratory results as given in patent US20220034883A1 (SYSMEX, published 2022).

Biological target: T1, His-tagged recombinant N protein of SARS-CoV (SARS-CoV, UniProt P59595 1-422)
T1 construct: mature
Test: ELISA screening of hybridomas

T1 sequence (P59595 1-422, tags left off): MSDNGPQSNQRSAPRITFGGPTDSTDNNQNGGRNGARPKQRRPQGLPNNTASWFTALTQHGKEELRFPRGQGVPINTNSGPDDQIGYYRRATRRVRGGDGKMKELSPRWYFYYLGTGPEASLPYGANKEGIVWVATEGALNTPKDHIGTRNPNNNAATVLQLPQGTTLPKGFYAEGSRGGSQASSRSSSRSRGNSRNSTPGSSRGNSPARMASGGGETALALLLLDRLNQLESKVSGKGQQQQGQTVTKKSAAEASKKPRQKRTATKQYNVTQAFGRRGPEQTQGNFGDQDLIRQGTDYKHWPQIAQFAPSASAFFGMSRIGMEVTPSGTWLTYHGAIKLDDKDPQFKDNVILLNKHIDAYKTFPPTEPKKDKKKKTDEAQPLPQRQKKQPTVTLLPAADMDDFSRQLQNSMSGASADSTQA

B1: first antibody (monoclonal antibody purified from the culture supernatant of the hybridoma of Clone 1) (antibody, V domains shown)
VH: QVTLKESGPGILQPSQTLSLTCSFSGFSLSTSGTGVSWIRQPSGKGLEWLAHIYWDDDKRYNPSLKSRLTVSKDTSGNQVFLKITSVDTADTATYYCARSNYGYDLDYWGQGTTLTVSS
VL: DIVMTQSQKFMSTSVGDRVSVTCKASQNVGTNVVWYQQKPGQSPKALIYSASYRYSGVPDRFTGSGSGTDFTLTISNVQSEDLAEYFCQQYNNYPLTFGSGTKLEIKR
notes: also called capture antibody
B1: binds.
